From FireProtDB (doi:10.1021/bi00197a024)
“And” between values parts separate entries of the source, which are not always exact repeats. Equal values may be shown once.

Conditions: Saccharomyces cerevisiae (strain ATCC 204508 / S288c), Thermal, DSC, reversible: yes, whole UniProt chain shown

B1: Cytochrome c mitochondrial import factor CYC2 wild type, P38909 (protein)
chain: MLWKNYVLSSSRITRRLHKSPRKSSFSKNFFITGCLLTVGAVSSYLTYRYTSERENKHELSPSYFVKYKISHKRDIDSSHFLLEVTPLFKQKVNIWSLMTAENLWSVEIKQPEVMVVRNYTPLPLKFNPASKEIEILKDGDNADGKLSFYIKKYENGEVARWLHHLPKGHIIEIRGPFIDYEFPHLPNELKRSRDCLYMDNRNERGNNVRENSQFIYQPYDIMMFTAGTGIVTALQLLLTESPFRGTIKLFHTDKNIKQLGPLYPILLRLQASNRVQLKIFETDRQTKQDVLKSIQKSITKPYPYKGLLPFSNVNNKNIMPVLALVCGPESYISSISGRKYDLNQGPVGGLLSKEGWNSDNVYKLS
With B1 the Tm (pH 3.5, Sodium acetate 0.1 M) was 39 °C, the “unfolding enthalpy (calorimetric)” value (pH 3.5, Sodium acetate 0.1 M) was 53.7 kcal/mol and the “unfolding enthalpy (van 't Hoff)” value (pH 3.5, Sodium acetate 0.1 M) was 67.7 kcal/mol. For the same protein, the Tm (pH 4, Sodium acetate 0.1 M) was 43.7 °C, the “unfolding enthalpy (calorimetric)” value (pH 4, Sodium acetate 0.1 M) was 62.7 kcal/mol and the “unfolding enthalpy (van 't Hoff)” value (pH 4, Sodium acetate 0.1 M) was 75.9 kcal/mol. For the same protein, the Tm (pH 5, Sodium phosphate 0.1 M) was 54.9 °C and 53.1 °C, the “unfolding enthalpy (calorimetric)” value (pH 5, Sodium phosphate 0.1 M) was 73.4 kcal/mol and 71.2 kcal/mol and the “unfolding enthalpy (van 't Hoff)” value (pH 5, Sodium phosphate 0.1 M) was 93.2 kcal/mol and 92.9 kcal/mol. The Tm (pH 6, Sodium phosphate 0.1 M) was 54.5 °C, the “unfolding enthalpy (calorimetric)” value (pH 6, Sodium phosphate 0.1 M) was 67.4 kcal/mol and the “unfolding enthalpy (van 't Hoff)” value (pH 6, Sodium phosphate 0.1 M) was 91.7 kcal/mol.
